Literature values in publication PMC5709052.
pKd: −log10 of the molar value. Like-named read-outs stand apart in the source and are kept apart here.

How the values were obtained:
[1] = biological target: CYP102A1 reductase domain (BMR) reductase domain (Priestia megaterium) (UniProt P14779)
[2] = biological target: CYP102A1 reductase domain (BMR) reductase domain (Priestia megaterium) (UniProt P14779); assay: absorption spectroscopy titration
[3] = biological target: CYP102A1 reductase domain (BMR) reductase domain (Priestia megaterium) (UniProt P14779); assay: absorption spectroscopy titration; remark: listed apart in the source
[4] = biological target: CYP102A1 reductase domain (BMR) reductase domain (Priestia megaterium) (UniProt P14779); remark: listed apart in the source

Sequence of UniProt P14779 (P14779 473-1049): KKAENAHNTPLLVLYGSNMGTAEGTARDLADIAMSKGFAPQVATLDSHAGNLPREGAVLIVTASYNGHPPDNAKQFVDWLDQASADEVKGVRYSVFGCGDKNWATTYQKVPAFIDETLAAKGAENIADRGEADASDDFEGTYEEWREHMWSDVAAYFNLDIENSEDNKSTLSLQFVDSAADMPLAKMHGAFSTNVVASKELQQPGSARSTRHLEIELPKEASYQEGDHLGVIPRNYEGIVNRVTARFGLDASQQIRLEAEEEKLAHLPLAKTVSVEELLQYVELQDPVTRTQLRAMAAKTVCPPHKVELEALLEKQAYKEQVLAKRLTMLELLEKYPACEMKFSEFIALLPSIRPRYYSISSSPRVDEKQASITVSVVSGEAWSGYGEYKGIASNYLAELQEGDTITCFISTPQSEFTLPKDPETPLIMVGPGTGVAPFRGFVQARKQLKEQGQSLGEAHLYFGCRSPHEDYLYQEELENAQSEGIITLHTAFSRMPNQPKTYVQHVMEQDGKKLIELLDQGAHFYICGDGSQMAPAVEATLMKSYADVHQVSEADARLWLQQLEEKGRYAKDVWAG

pKd [1] | pKd [2] | pKd [3] | pKd [4] | Substance
6.32 | 6.85 | 7.00 | – | CYP3A4 (from UniProt P08684)
– | – | – | 6.43 | CYP2B4 (from UniProt P00178)
